The source of these data is paper PMC4176360, “Crystal structure of the catalytic core of Rad2: insights into the mechanism of substrate binding” (Nucleic Acids Research, 2014).

For series [1], the target named is Sc-Rad2-ΔSC (complex I construct) (Saccharomyces cerevisiae, UniProt P07276 1-986, del112-731;del987-1031). Nature of the series: X-ray crystallography; non-productive complex; DNA largely disordered, backbone contacts H2TH of one subunit; Crystallization at room temperature, protein:DNA 1:1.2, 10 mg/ml protein; protein in 20 mM HEPES pH 7.5, 150 mM KCl, 5 mM Ca acetate, 5% glycerol, 0.5 mM TCEP (complex I: 150 mM NaCl); point-mutant cleavage assays without a binding read-out not listed. To be noted: protein: recombinant; tags: 6xHis-SUMO cleaved; two additional N-terminal residues left; chain copies: 2; duplex 12-15 bp with overhangs.

Series [2] deals with T1, Sc-Rad2-ΔSC (Saccharomyces cerevisiae, UniProt P07276 2-986, del112-731;del987-1031). Nature of the series: X-ray crystallography, 2.4 Å; Ca2+ at active site; K+ at H2TH; Crystallization at room temperature, protein:DNA 1:1.2, 10 mg/ml protein; protein in 20 mM HEPES pH 7.5, 150 mM KCl, 5 mM Ca acetate, 5% glycerol, 0.5 mM TCEP (complex I: 150 mM NaCl); point-mutant cleavage assays without a binding read-out not listed. Particulars: protein: recombinant; tags: 6xHis-SUMO removed by SENP; N-terminal Gly2 after cleavage; chain copies: 2; 15 bp with 1 nt overhangs on all four ends.

Series [3] has as its target T1, Sc-Rad2-ΔSC. Nature of the series: X-ray crystallography, 2.7 Å; Ca2+ at active site; K+ at H2TH; Crystallization at room temperature, protein:DNA 1:1.2, 10 mg/ml protein; protein in 20 mM HEPES pH 7.5, 150 mM KCl, 5 mM Ca acetate, 5% glycerol, 0.5 mM TCEP (complex I: 150 mM NaCl); point-mutant cleavage assays without a binding read-out not listed. To be noted: protein: recombinant; tags: 6xHis-SUMO removed by SENP; N-terminal Gly2 after cleavage; chain copies: 2; 15 bp with 4 nt overhangs on all four ends.

Series [4] has as its target T1, Sc-Rad2-ΔSC. The series is described as follows: X-ray crystallography, 2.1 Å; Ca2+ at active site; K+ at H2TH; Crystallization at room temperature, protein:DNA 1:1.2, 10 mg/ml protein; protein in 20 mM HEPES pH 7.5, 150 mM KCl, 5 mM Ca acetate, 5% glycerol, 0.5 mM TCEP (complex I: 150 mM NaCl); point-mutant cleavage assays without a binding read-out not listed. Particulars: protein: recombinant; tags: 6xHis-SUMO removed by SENP; N-terminal Gly2 after cleavage; chain copies: 2; 14 complementary bp with TT overhangs on all four ends; in crystal 15-mer duplex with one T-T mismatch, 1 nt overhangs at one end and 2 nt at the other.

Series [5] concerns the molecule itself. The series is described as follows: crystal structure; complex I: selenomethionine-labeled Rad2-ΔSC mixed with DNA at a 1:1.2 molar ratio, sitting-drop vapor diffusion, room temperature, reservoir 20% (v/v) ethylene glycol; space group P3(2)21, 2.75 Å.

B1: complex I DNA (dsDNA)
DNA 1: AAAGCTCTGACTCAG
DNA 2: CTGAGTCAGAGCAAA
For B1, the binding result in series [1] is reported as “binds”.

B2: complex III DNA (dsDNA)
DNA 1: TGCTCCCTTGTCTCAGT
DNA 2: TCTGAGACAAGGGAGCT
Consider B2, for which the binding result with Sc-Rad2-ΔSC [2] is listed as “binds”.

B3: complex IV DNA (dsDNA)
DNA 1: TTTTGCTCCCTTGTCTCAGTTTT
DNA 2: TTTTCTGAGACAAGGGAGCTTTT
As to B3, in the series with Sc-Rad2-ΔSC [3], the binding result is “binds”.

B4: complex II DNA (dsDNA)
DNA 1: TTAGGTGGACGGATCATT
DNA 2: TTTGATCCGTCCACCTTT
For the molecule B4, the binding result with Sc-Rad2-ΔSC [4] was “binds”.

B5: Sc-Rad2-ΔSC (Δ112-731, Δ987-1031) (enzyme, S. cerevisiae, UniProt P07276 1-986, looked up)
chain: MGVHSFWDIAGPTARPVRLESLEDKRMAVDASIWIYQFLKAVRDQEGNAVKNSHITGFFRRICKLLYFGIRPVFVFDGGVPVLKRETIRQRKERRQGKRESAKSTARKLLANTTLSTSAERNVAENAFVEDELFEQQMKDKRDSDEVTMDMIKEVQELLSRFGIPYITAPMEAEAQCAELLQLNLVDGIITDDSDVFLFGGTKIYKNMFHEKNYVEFYDAESILKLLGLDRKNMIELAQLLGSDYTNGLKGMGPVSSIEVIAEFGNLKNFKDWYNNGQFDKRKQETENKFEKDLRKKLVNNEIILDDDFPSVMVYDAYMRPEVDHDTTPFVWGVPDLDMLRSFMKTQLGWPHEKSDEILIPLIRDV
modifications: selenomethionine-labeled (complex I)
notes: Rad2, S. cerevisiae, spacer residues 112-731 removed and C-terminus (residues 987-1031) removed; The dimer is seen in crystal complex I together with disordered DNA; The same construct, not selenomethionine-labeled, stands in complexes II-IV; also called Sc-Rad-ΔSC; catalytic core of Rad2; source: E. coli BL21 (DE3) Rosseta, purified (HisTrap, SENP cleavage, second HisTrap, Superdex 200); …
As to B5, the binding result in series [5] is listed as “binds”.
